The text below walks through data of article PMC6047364, “A Novel PLP-Dependent Alanine/Serine Racemase From the Hyperthermophilic Archaeon Pyrococcus horikoshii OT-3” (Frontiers in Microbiology, 2018).

The target in one data set is T1, PH1501 (Pyrococcus horikoshii, UniProt O59170).
T1 construct: full-length, pET11a (NdeI/BamHI), no tag described, E. coli BL21 (DE3), partially purified by heat treatment at 90°C; about 50 kDa on SDS-PAGE
T1 sequence (O59170 1-438): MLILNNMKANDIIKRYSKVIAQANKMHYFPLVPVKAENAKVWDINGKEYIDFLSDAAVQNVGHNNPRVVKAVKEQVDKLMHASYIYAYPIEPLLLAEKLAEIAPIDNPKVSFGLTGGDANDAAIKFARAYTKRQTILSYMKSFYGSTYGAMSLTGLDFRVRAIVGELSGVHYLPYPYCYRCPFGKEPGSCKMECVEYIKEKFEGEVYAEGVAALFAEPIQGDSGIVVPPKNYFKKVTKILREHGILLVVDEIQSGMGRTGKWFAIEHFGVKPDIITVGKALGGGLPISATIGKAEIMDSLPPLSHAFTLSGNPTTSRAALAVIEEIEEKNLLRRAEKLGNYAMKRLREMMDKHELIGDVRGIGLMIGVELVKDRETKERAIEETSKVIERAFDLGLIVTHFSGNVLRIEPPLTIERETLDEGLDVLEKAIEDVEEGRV
Put plainly: UPLC detection of D-amino acid. The format is biochemical. The following applies: partially purified (heat-treated) enzyme; 100 mM HEPES pH 7.0, 10 mM L-amino acid, 0.04 mM PLP, 80°C, 60 min; slight peak.

Data set [1] concerns the target T2, PH0782; Ala/Ser racemase (ASR) (Pyrococcus horikoshii, UniProt O58478).
T2 construct: full-length, pET11a (NdeI/BglII), no tag described, E. coli BL21 (DE3), purified; hexamer about 300 kDa; fold type I PLP enzyme
Kind of data set: apo-enzyme reactivation, racemase activity. It counts as biochemical. The following applies: apo-enzyme prepared at 80°C for 18 h in assay mixture with L-Ala; covalent (Schiff base, K291 suggested).

Substrate in data set [2]: N[C@@H](CO)C(=O)O
Put plainly: purified protein. The following applies: 100 mM HEPES pH 7.0, 0.04 mM PLP, 80°C, racemization to D-Ser, apparent.

Substrate in data set [3]: C[C@@H](N)C(=O)O
Kind of data set: purified protein. The following applies: 100 mM HEPES pH 7.0, 0.04 mM PLP, 80°C, racemization to L-Ala, apparent.

Substrate in data set [4]: N[C@H](CO)C(=O)O
Kind of data set: purified protein. The following applies: 100 mM HEPES pH 7.0, 0.04 mM PLP, 80°C, racemization to L-Ser, apparent.

Substrate in data set [5]: C[C@H](N)C(=O)O
Kind of data set: purified protein. Particulars: 100 mM HEPES pH 7.0, 0.04 mM PLP, 80°C, racemization to D-Ala, apparent.

Data set [6] deals with the molecule itself. Kind of data set: SEC; gel filtration on HiLoad 26/60 Superdex 200 with molecular mass standards (thyroglobulin, gamma-globulin, ovalbumin, myoglobin); native mass about 300 kDa against a subunit of 50.5 kDa (calculated).

Regarding `N[C@@H](Cc1ccccc1)C(=O)O` [Phe], the “UPLC detection of D-amino acid” value at PH1501 is “Slight peaks for the D-forms of Met, Phe, and Leu were detected”.
For `Cc1ncc(COP(=O)(O)O)c(C=O)c1O` [pyridoxal 5′-phosphate], the “apo-enzyme reactivation, racemase activity” value in data set [1] is “apo-enzyme exhibited no activity in the absence of PLP and recovered its activity by addition”.
`CSCC[C@H](N)C(=O)O` [Met]: the “UPLC detection of D-amino acid” value on PH1501 was “Slight peaks for the D-forms of Met, Phe, and Leu were detected”.

B1: PH0782; Ala/Ser racemase (ASR) (Pyrococcus horikoshii OT3) (protein)
chain: MEYPKIVVKPPGPRAKELIEREKKVLSTGIGVKLFPLVPKRGFGPFIEDVDGNVFIDFLAGAAAASTGYAHPKLVKAVKEQVELIQHSMIGYTHSERAIRVAEKLVEISPIENSKVIFGLSGSDAVDMAIKVSKFSTRRPWILAFIGAYHGQTLGATSVASFQVSQKRGYSPLMPNVFWIPYPNPFRNIWGINGYEEPDELINRVLDYLEYYVFSHVVPPDEVAALFAEPIQGDAGIVVPPENFFKELKKLLEEYGILLVMDEVQTGIGRTGKWFASEWFNVKPDMIIFGKGVASGMGLSGVIGRKEIMDITSGSALLTPAANPVISAAAEATLEIIEEENLLKNALEVGEFIMGRLKEIKERFEIIGDVRGKGLMIGVEIVKENGRPDPEMTGKICWRAFELGLILPSYGMFGNVIRITPPLVLTKEVAEKALEIIERAIKDTLTGKVERKVVTWH
For B1, the Km in “purified protein [2]” is listed as 4.5 ± 0.32 mM; in the data set “purified protein [3]”, 5.5 ± 0.59 mM; in “purified protein [4]”, 5.9 ± 0.40 mM; in the data set “purified protein [5]”, 3.3 ± 0.22 mM. The maximum rate (Vmax) in the data set “purified protein [2]” was 31.4 µmol/min/mg; in the data set “purified protein [3]”, 49.5 µmol/min/mg; in the data set “purified protein [4]” it was 41.2 µmol/min/mg; in the data set “purified protein [5]” it was 28.2 µmol/min/mg. For the same molecule, the catalytic efficiency (kcat/Km) came to 5870 M⁻¹ s⁻¹ in the data set “purified protein [2]”, 7580 M⁻¹ s⁻¹ in the data set “purified protein [3]”, 5880 M⁻¹ s⁻¹ in “purified protein [4]” and 7190 M⁻¹ s⁻¹ in “purified protein [5]”.

B2: Ala/Ser racemase (ASR), the protein encoded by PH0782, from Pyrococcus horikoshii OT-3 (enzyme, UniProt O58478 1-474, looked up)
chain: MPFLPFSYYPFSLEVILMEYPKIVVKPPGPRAKELIEREKKVLSTGIGVKLFPLVPKRGFGPFIEDVDGNVFIDFLAGAAAASTGYAHPKLVKAVKEQVELIQHSMIGYTHSERAIRVAEKLVEISPIENSKVIFGLSGSDAVDMAIKVSKFSTRRPWILAFIGAYHGQTLGATSVASFQVSQKRGYSPLMPNVFWIPYPNPFRNIWGINGYEEPDELINRVLDYLEYYVFSHVVPPDEVAALFAEPIQGDAGIVVPPENFFKELKKLLEEYGILLVMDEVQTGIGRTGKWFASEWFNVKPDMIIFGKGVASGMGLSGVIGRKEIMDITSGSALLTPAANPVISAAAEATLEIIEEENLLKNALEVGEFIMGRLKEIKERFEIIGDVRGKGLMIGVEIVKENGRPDPEMTGKICWRAFELGLILPSYGMFGNVIRITPPLVLTKEVAEKALEIIERAIKDTLTGKVERKVVTWH
notes: Ala/Ser racemase encoded by ORF PH0782 of Pyrococcus horikoshii OT-3 (annotated as a putative GABA aminotransferase); amplified from genomic DNA with primers from the initiation codon to the termination codon; calculated subunit mass 50.5 kDa; PLP-dependent enzyme; also called BAR homolog; source: E. coli BL21 (DE3), pET11a/PH0782, purified (heat treatment, butyl-Toyopearl, DEAE-cellurofine)
With B2, the “stoichiometry N” value in data set [6] is 6.
